This is an account of results in patent US8859223B1, “Compositions and methods for imaging beta-secretase activity in living cells and organisms” (Duke University, priority 2012, dated 2014).

Square brackets hold non-standard residues; d marks the D form. Ends that are not written are not given here. 2Thi = N[C@@H](Cc1cccs1)C(=O)O; Nva = CCC[C@H](N)C(=O)O

The first data set deals with T1, BACE (Homo sapiens, UniProt P56817). The data set can be described thus: Evaluation of peptides as BACE substrates (percent cleavage by LC-MS). The data set is classed as biochemical. The settings on record: 10 hr incubation with BACE enzyme, determined by LC-MS. The procedure: In order to evaluate a range of peptide amino acid sequences as BACE substrates for the probes, the peptides shown below in Table II were incubated with BACE enzyme under conditions suitable for enzyme activity and the percent cleavage after 10 hr was determined by LC-MS. Thus, in addition to SEQ ID NO: 1 present in β-MAP, the peptide sequences corresponding to SEQ ID NO's: 2-6 and 10-11 can also be useful as BACE substrates in the BACE probes of the present disclosure. For example, the specific BACE substrate sequence can be chosen based on the level of cleavage desired for a particular use for which the probe will be utilized. In can be envisioned that a higher or a lower amount of BACE probe cleavage could be desirable based on the different uses of the BACE probes.
T1 sequence (P56817 46-501): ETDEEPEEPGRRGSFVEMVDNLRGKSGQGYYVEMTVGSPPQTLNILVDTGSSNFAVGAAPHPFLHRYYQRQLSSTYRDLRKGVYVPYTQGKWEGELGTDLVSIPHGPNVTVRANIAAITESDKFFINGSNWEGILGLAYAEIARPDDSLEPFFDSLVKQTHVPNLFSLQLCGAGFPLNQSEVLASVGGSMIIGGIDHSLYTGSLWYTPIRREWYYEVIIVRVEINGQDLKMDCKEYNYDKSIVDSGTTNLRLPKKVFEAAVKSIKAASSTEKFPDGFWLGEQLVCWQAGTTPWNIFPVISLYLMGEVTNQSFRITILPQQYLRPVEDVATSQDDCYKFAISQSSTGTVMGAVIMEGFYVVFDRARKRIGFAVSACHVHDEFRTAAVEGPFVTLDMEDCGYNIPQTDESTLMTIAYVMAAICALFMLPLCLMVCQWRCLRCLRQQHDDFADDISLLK
As for “EIDL-MVLD (EIDLMVLD) [BACE substrate polypeptide]”, the “Percent Cleavage after 10 hr Incubation with BACE” value (shortened to “Percent Cleavage”) is given as 20%. Consider “EIDL-SSHD (EIDLSSHD) [BACE substrate polypeptide]”, for which the “Percent Cleavage” value is 5%. On to “EVNL-SSHD (EVNLSSHD) [BACE substrate polypeptide]”, for which the “Percent Cleavage” value worked out at 3.5%. Take “APSL-DAHF (APSLDAHF) [peptide evaluated as BACE substrate]”: the “Percent Cleavage” value was 0.5%. On to “EVNL-DAHF (EVNLDAHF) [BACE substrate polypeptide]”, for which the “Percent Cleavage” value is 50%. The same measure, in the same setting: in the case of “EVNL-DAEF (EVNLDAEF) [BACE substrate polypeptide]” it was 50%; in that of “DETL-DAHF (DETLDAHF) [peptide evaluated as BACE substrate]”, 1%; in that of “ASNL-DAHF (ASNLDAHF) [peptide evaluated as BACE substrate]”, “Not Detected”. “EVNF-EVEF (EVNFEVEF) [BACE substrate polypeptide]”: the “Percent Cleavage” value came out at 85%. In the case of “EI(Thi)(Thi)-(Nva)AHF (EI[2Thi][2Thi][Nva]AHF) [BACE substrate polypeptide with unnatural amino acids thienyl and norvaline]”, the “Percent Cleavage” value turned out to be 25%.

Another data set concerns the target T1, BACE.
Assay: not given
The settings on record: compared to wild type; cited from earlier work.
In the case of “Swedish mutant APP: amyloid precursor protein with the Swedish mutation”, the “increase in Kcat/KM” value was 60 fold.
